Data: article PMC7511963 (NPJ Vaccines, 2020)

Experiments:
[1] = target: HPV16 L1L2 pseudovirus (human papillomavirus type 16) (UniProt P03101)
[2] = target: T1, HPV16 L1L2 pseudovirus (Human papillomavirus type 16, L1 …); experiment: cryo-EM structure; details: both partners purified
T1 construct: also called HPV16 PsV; HPV16 PsVs; copies: 360 +
T1 chain: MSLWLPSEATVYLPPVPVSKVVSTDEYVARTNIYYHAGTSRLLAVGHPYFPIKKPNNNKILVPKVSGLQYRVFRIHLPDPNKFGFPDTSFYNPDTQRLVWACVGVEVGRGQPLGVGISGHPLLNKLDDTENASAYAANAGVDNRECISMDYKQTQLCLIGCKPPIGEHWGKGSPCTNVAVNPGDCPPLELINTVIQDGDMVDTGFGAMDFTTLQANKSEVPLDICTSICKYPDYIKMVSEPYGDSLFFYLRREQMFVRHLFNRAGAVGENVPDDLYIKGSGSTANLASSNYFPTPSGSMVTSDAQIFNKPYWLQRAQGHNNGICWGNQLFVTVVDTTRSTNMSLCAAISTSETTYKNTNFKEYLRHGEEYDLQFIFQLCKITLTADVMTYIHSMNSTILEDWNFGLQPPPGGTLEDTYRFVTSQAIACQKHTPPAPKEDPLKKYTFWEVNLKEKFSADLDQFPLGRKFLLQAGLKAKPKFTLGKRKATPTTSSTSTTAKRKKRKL

B1: rabbit monoclonal antibody H16.001 (antibody, V domains shown)
VH: QSVKESEGRLVTPGTPLTLTCTASGFTMSRYHMTWVRQAPGKGLEWIGIIYARNSDTYYANWAKGRFTISKTSTTVDLKITSPTIEDTATYFCARVDSDSSGAFDRLDLWGQGTLVTVSS
VL: DPMLTQTAASVEVAVGGTVTIKCQASQSIGGYLSWYQQKPGQRPKLLIYRASTLASGVPSRFKGSGSGTEYTLTFSGVECADAAAYYCQQGYTSSDINNAFGGGTEVVVK
- PsV-based neutralization assay on 293FT cells: IC50, the antibody concentration required to block viral entry by 50% [1]: 0.4 ng/mL

B2: H16.001 Fab (Fab, V domains shown)
VH: B1 VH
VL: B1 VL
notes: also called Fab H16.001; H16.001 Fabs
- stoichiometry N [2]: 360 Fabs per capsid
